Experimental data taken from patent US6274703.
Where two headings read alike, the source gives them in different places.

How the values were obtained:
[1] = molecular target: TIMP-2 (Homo sapiens (Human)) (UniProt P16035); assay: competition with 125I-labelled WT GelA-CTD on TIMP-2 coated wells; mutant Ki over WT Kd
[2] = molecular target: TIMP-2 (Homo sapiens (Human)) (UniProt P16035); assay: competition with 125I-labelled WT GelA-CTD on TIMP-2 coated wells; against WT
[3] = molecular target: TIMP-2 (Homo sapiens (Human)) (UniProt P16035); assay: self competition with 125I-labelled WT GelA-CTD on TIMP-2 coated wells
[4] = molecular target: TIMP-2 (Homo sapiens (Human)) (UniProt P16035); assay: competition with 125I-labelled WT GelA-CTD on TIMP-2 coated wells; against WT; remark: listed apart in the source

Row | Ki/Kd [1] | fold loss in TIMP-2 binding [2] | Ki/Kd [3] | fold loss in TIMP-2 binding [4] | Substance
1 | > 500 | > 100 fold | – | – | FLAG GelA-CTD double mutant #46 Glu^641→Ala + Gly^651→Arg (from UniProt P08253)
2 | – | – | 1 | – | FLAG GelA-CTD fusion protein, wild type (from UniProt P08253)
3 | 8 | – | – | – | FLAG GelA-CTD mutant #28 Asp^569→Ala (from UniProt P08253)
4 | 6 | – | – | – | FLAG GelA-CTD mutant #31 Lys^579→Ala (from UniProt P08253)
5 | 25 | – | – | – | FLAG GelA-CTD mutant #39 Lys^604→Ala (from UniProt P08253)
6 | 300 | > 100 fold | – | – | FLAG GelA-CTD mutant #41 Asp^615→Ala (from UniProt P08253)
7 | > 500 | – | – | > 100 fold | FLAG GelA-CTD mutant #229 Lys^576→Ala (from UniProt P08253)
8 | > 500 | > 100 fold | – | > 100 fold | FLAG GelA-CTD mutant #234 Arg^590→Ala (from UniProt P08253)
9 | > 500 | – | – | > 100 fold | FLAG GelA-CTD mutant #247 Lys^646→Ala (from UniProt P08253)
10 | > 500 | – | – | – | FLAG GelA-CTD mutant #250 Trp^574→Ala (from UniProt P08253)
11 | 10 | – | – | – | FLAG GelA-CTD mutant #252 Tyr^636→Ala (from UniProt P08253)
12 | 8 | – | – | – | FLAG GelA-CTD mutant #255 Phe^650→Ala (from UniProt P08253)
13 | 3 | – | – | – | FLAG GelA-CTD mutant #257 Gly^651→Ala (from UniProt P08253)
14 | 10 | – | – | – | FLAG GelA-CTD mutant #258 Asp^656→Ala (from UniProt P08253)
15 | 3 | – | – | – | FLAG GelA-CTD mutant #259 Asn^611→Ala (from UniProt P08253)
